According to US20230304019, “DNA APTAMER, PHARMACEUTICAL COMPOSITION COMPRISING SAME, METHOD FOR INHIBITING CATALYTIC ABILITY OF TXNDC5, AND METHOD FOR PREVENTING OR TREATING ORGAN FIBROSIS” (CHI-HUA FUNDATION, published 2023):

How the values were obtained:
TXNDC5 (wild type) [1] = biological target: T1, TXNDC5 (wild type) (Homo sapiens, UniProt Q8NBS9 Q8NBS9:33-432); assay: magnetic nanoparticle (MARAS) pulldown with q-PCR, nonlinear regression; details: tags: Ni-column purified, baculovirus/insect cells, Sino Biological; double stem-loop (predicted)
Description: (§1) For further determining the binding efficiency of TXNDC5-targeting aptamers, the Kd values, as the indicator of aptamer and target molecule interaction, of aptamer-3 and aptamer-7 are measured by q-PCR, and the results were fitted with nonlinear regression. The method of measuring the Kd values of aptamer-3 and aptamer-7 is illustrated as following.
(§2) Aptamer-3 and aptamer-7 are isolated and progressively diluted in series from 100 to 3.125 nM, aptamer-3 and aptamer-7 are folded in the binding buffer as the procedures mentioned above. Equal amounts of either mouse-MNPs or humane-MNPs are mixed with aptamer-3 and aptamer-7 and followed the MARAS and q-PCR procedure as described above to specifically bind to aptamer-3 and aptamer-7. The Kd values of aptamer-3 and aptamer-7 are measured by fitting the results of each Ct value from q-PCR and the concentrations in a nonlinear regression through PRISM 8 (Graphpad). Each result is performed in duplicate to reduce the errors.

TXNDC5 (wild type) [2] = biological target: T1, TXNDC5 (wild type); assay: inhibition; insulin reduction turbidity assay, 0.5 mM DTT, potassium phosphate, EDTA, pH 7; details: tags: Ni-column purified, baculovirus/insect cells, Sino Biological
Description: An insulin/assay buffer is prepared by adding 1.6 mM insulin (which is prepared by dissolving insulin in 0.1 N HCl) with the assay buffer consisted of 100 mM potassium phosphate and 0.2 mM EDTA (pH 7). The volume of each insulin/assay buffer is 15 μl, wherein the volume of insulin is 6 μl and the volume of assay buffer is 9 μl.
Each of the above mixtures of aptamers (Ap-3, Ap7 and Ap-11) with different concentrations and human wild type TXNDC5 is added with a corresponding insulin/assay buffer separately. That is, aptamer-3, aptamer-7 and aptamer-11 have seven experimental group samples (with different concentrations, 7.8125 μM, 15.625 μM, 31.25 μm, 62.5 μM, 125 μM, 250 μM and 500 μM) separately. An insulin/assay buffer which is not added with the above mixture of aptamers and human wild type TXNDC5 is prepared as the control group sample.

TXNDC5 [3] = biological target: T2, TXNDC5 (Mus musculus, UniProt Q91W90 Q91W90:34-417); assay: q-PCR of eluted aptamer; specific and strong binding to mouse TXNDC5; details: tags: Ni-column purified, baculovirus/insect cells, Sino Biological; single stem-loop (predicted)
Description: The 100 nM of aptamer-3, aptamer-7 and aptamer-11 are folded in the binding buffer via the procedures as mentioned above. 20 nM of Aptamer-3, aptamer-7 and aptamer-11 are taken individually and hybridized with positive-(mouse and human TXNDC5, 5 μl) and negative-(serum and catalytic-death TXNDC5, 5 μl) MNPs, and the hybridized aptamers-MNPs are processed according to the above MARAS procedures. Aptamer-3, aptamer-7 and aptamer-11 bound with MNPs are collected and eluted by heating to 95° C. for 5 min in 100 μl ddH₂O.
The amounts of aptamer-3, aptamer-7 and aptamer-11 are detected by q-PCR and the relative expression levels are utilized as outcomes. The process of detecting the amounts of aptamer-3, aptamer-7 and aptamer-11 by q-PCR is set forth as following. To measure the relative expression of aptamer-3, aptamer-7 and aptamer-11, the q-PCR is performed in 96-well plates with BioRad CFX Connect system. The fivefold-diluted eluted aptamer-3, aptamer-7 and aptamer-11 are individually dissolved in test tubes filled with 100 μl of RNase-free water. […]

TXNDC5 [4] = biological target: T2, TXNDC5; assay: magnetic nanoparticle (MARAS) pulldown with q-PCR, nonlinear regression; details: tags: Ni-column purified, baculovirus/insect cells, Sino Biological; double stem-loop (predicted)
Description: as §1, §2

T1 sequence (Q8NBS9 33-432, one chain of several): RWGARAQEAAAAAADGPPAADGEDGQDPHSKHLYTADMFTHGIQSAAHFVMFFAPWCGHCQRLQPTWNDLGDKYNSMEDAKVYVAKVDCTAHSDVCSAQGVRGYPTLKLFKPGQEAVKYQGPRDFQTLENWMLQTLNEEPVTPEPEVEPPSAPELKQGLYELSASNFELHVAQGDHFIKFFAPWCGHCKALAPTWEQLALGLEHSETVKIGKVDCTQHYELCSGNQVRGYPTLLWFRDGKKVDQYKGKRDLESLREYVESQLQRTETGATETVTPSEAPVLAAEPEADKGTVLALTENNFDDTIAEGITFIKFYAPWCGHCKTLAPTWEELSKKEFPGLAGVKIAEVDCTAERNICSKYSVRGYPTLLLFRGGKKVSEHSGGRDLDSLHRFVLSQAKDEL
T2 sequence (Q91W90 34-417, one chain of several): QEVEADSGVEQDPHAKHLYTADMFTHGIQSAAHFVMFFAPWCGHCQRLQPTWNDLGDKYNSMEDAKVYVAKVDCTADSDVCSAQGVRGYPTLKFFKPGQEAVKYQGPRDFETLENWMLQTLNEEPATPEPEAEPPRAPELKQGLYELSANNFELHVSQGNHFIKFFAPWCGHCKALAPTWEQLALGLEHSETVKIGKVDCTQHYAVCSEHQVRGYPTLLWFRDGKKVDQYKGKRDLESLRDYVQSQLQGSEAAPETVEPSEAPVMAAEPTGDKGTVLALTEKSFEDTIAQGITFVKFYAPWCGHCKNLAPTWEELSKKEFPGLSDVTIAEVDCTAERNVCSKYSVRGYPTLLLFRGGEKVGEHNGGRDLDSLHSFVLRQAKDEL

| Binder | Kd (TXNDC5 (wild type) [1]) | IC50 (TXNDC5 (wild type) [2]; double stem-loop (predicted)) | binding result (TXNDC5 [3]) | IC50 (TXNDC5 (wild type) [2]; single stem-loop (predicted)) | Kd (TXNDC5 [4]) |
| --- | --- | --- | --- | --- | --- |
| AGCAGCACAGAGGTCAGGAACCTTATGCCTATGTAGCGTGCTACCGTGAA (ssDNA) [Aptamer-7] | 0.0169 µM | 241 µM | – | – | – |
| AGCAGCACAGAGGTCTCTTATTACTCTCCCGTACCGCGTGCTACCGTGAA (ssDNA) [Aptamer-11] | – | – | binds | 263 µM | – |
| AGCAGCACAGAGGTCAATGTAATCTTTATCTATCGGCGTGCTACCGTGAA (ssDNA) [Aptamer-3] | – | 214 µM | – | – | 0.0075 µM |
